PMC8298264, “Function of cofactor Akirin2 in the regulation of gene expression in model human neutrophil-like HL60 cells” (Bioscience Reports, 2021)

B1: sp¦O60306¦AQR_HUMAN (protein, UniProt O60306 1-1485, looked up)
RNA helicase aquarius: MAAPAQPKKIVAPTVSQINAEFVTQLACKYWAPHIKKKSPFDIKVIEDIYEKEIVKSRFAIRKIMLLEFSQYLENYLWMNYSPEVSSKAYLMSICCMVNEKFRENVPAWEIFKKKPDHFPFFFKHILKAALAETDGEFSLHEQTVLLLFLDHCFNSLEVDLIRSQVQQLISLPMWMGLQLARLELELKKTPKLRKFWNLIKKNDEKMDPEAREQAYQERRFLSQLIQKFISVLKSVPLSEPVTMDKVHYCERFIELMIDLEALLPTRRWFNTILDDSHLLVHCYLSNLVRREEDGHLFSQLLDMLKFYTGFEINDQTGNALTENEMTTIHYDRITSLQRAAFAHFPELYDFALSNVAEVDTRESLVKFFGPLSSNTLHQVASYLCLLPTLPKNEDTTFDKEFLLELLVSRHERRISQIQQLNQMPLYPTEKIIWDENIVPTEYYSGEGCLALPKLNLQFLTLHDYLLRNFNLFRLESTYEIRQDIEDSVSRMKPWQSEYGGVVFGGWARMAQPIVAFTVVEVAKPNIGENWPTRVRADVTINLNVRDHIKDEWEGLRKHDVCFLITVRPTKPYGTKFDRRRPFIEQVGLVYVRGCEIQGMLDDKGRVIEDGPEPRPNLRGESRTFRVFLDPNQYQQDMTNTIQNGAEDVYETFNIIMRRKPKENNFKAVLETIRNLMNTDCVVPDWLHDIILGYGDPSSAHYSKMPNQIATLDFNDTFLSIEHLKASFPGHNVKVTVEDPALQIPPFRITFPVRSGKGKKRKDADVEDEDTEEAKTLIVEPHVIPNRGPYPYNQPKRNTIQFTHTQIEAIRAGMQPGLTMVVGPPGTGKTDVAVQIISNIYHNFPEQRTLIVTHSNQALNQLFEKIMALDIDERHLLRLGHGEEELETEKDFSRYGRVNYVLARRIELLEEVKRLQKSLGVPGDASYTCETAGYFFLYQVMSRWEEYISKVKNKGSTLPDVTEVSTFFPFHEYFANAPQPIFKGRSYEEDMEIAEGCFRHIKKIFTQLEEFRASELLRSGLDRSKYLLVKEAKIIAMTCTHAALKRHDLVKLGFKYDNILMEEAAQILEIETFIPLLLQNPQDGFSRLKRWIMIGDHHQLPPVIKNMAFQKYSNMEQSLFTRFVRVGVPTVDLDAQGRARASLCNLYNWRYKNLGNLPHVQLLPEFSTANAGLLYDFQLINVEDFQGVGESEPNPYFYQNLGEAEYVVALFMYMCLLGYPADKISILTTYNGQKHLIRDIINRRCGNNPLIGRPNKVTTVDRFQGQQNDYILLSLVRTRAVGHLRDVRRLVVAMSRARLGLYIFARVSLFQNCFELTPAFSQLTARPLHLHIIPTEPFPTTRKNGERPSHEVQIIKNMPQMANFVYNMYMHLIQTTHHYHQTLLQLPPAMVEEGEEVQNQETELETEEEAMTVQADIIPSPTDTSCRQETPAFQTDTTPSETGATSTPEAIPALSETTPTVVGAVSAPAEANTPQDATSAPEETK
B2: sp¦P41250¦GARS_HUMAN (protein, UniProt P41250 37-739, looked up)
Glycine--tRNA ligase: SAASCPPISLPAAASRSSMDGAGAEEVLAPLRLAVRQQGDLVRKLKEDKAPQVDVDKAVAELKARKRVLEAKELALQPKDDIVDRAKMEDTLKRRFFYDQAFAIYGGVSGLYDFGPVGCALKNNIIQTWRQHFIQEEQILEIDCTMLTPEPVLKTSGHVDKFADFMVKDVKNGECFRADHLLKAHLQKLMSDKKCSVEKKSEMESVLAQLDNYGQQELADLFVNYNVKSPITGNDLSPPVSFNLMFKTFIGPGGNMPGYLRPETAQGIFLNFKRLLEFNQGKLPFAAAQIGNSFRNEISPRSGLIRVREFTMAEIEHFVDPSEKDHPKFQNVADLHLYLYSAKAQVSGQSARKMRLGDAVEQGVINNTVLGYFIGRIYLYLTKVGISPDKLRFRQHMENEMAHYACDCWDAESKTSYGWIEIVGCADRSCYDLSCHARATKVPLVAEKPLKEPKTVNVVQFEPSKGAIGKAYKKDAKLVMEYLAICDECYITEMEMLLNEKGEFTIETEGKTFQLTKDMINVKRFQKTLYVEEVVPNVIEPSFGLGRIMYTVFEHTFHVREGDEQRTFFSFPAVVAPFKCSVLPLSQNQEFMPFVKELSEALTRHGVSHKVDDSSGSIGRRYARTDEIGVAFGVTIDFDTVNKTPHTATLRDRDSMRQIRAEISELPSIVQDLANGNITWADVEARYPLFEGQETGKKETIEE
B3: sp¦Q86Y56¦DAAF5_HUMAN (protein, UniProt Q86Y56 2-855, looked up)
Dynein axonemal assembly …: AALGVAEAVAAPHPAEGAETAEAVELSRALSRLLPGLEADSKPGRRRALEALRRALEEPGPAADPTAFQGPWARLLLPRLLRCLSDPAEGCRALAVHLLDLGLRRAARPRDALPRLLPALAARLAGPVPARRPPEACEELRLALVQLLGLAVDLCGAALAPHLDDALRALRCSLLDPFAAVRRESCSCAAALAQATPDHFHMQSESLIGPLMQTISHQHWKVRVAAIEATGAVIHFGNGKSVDDVLSHFAQRLFDDVPQVRRAVASVVGGWLLCLRDRYSFFHKLIPLLLSSLNDEVPEVRQLAASLWEDVGLQWQKENEEDLKDKLDFAPPTPPHYPPHERRPVLGCRELVFRNLSKILPALCHDITDWVVGTRVKSAQLLPVLLLHAEDHATQHLEVVLRTLFQACTDEEAAVVQSCTRSAELVGTFVSPEVFLKLILSTLKKTPSASGLLVLASAMRGCPREALQPHLAAIATELAQAHICQASENDLYLERLLLCVQALVSVCHEDCGVASLQLLDVLLTIVALAGATGLRDKAQETMDSLAMVEGVSSCQDLYRKHIGPLLERVTASHLDWTAHSPELLQFSVIVAQSGPALGEALPHVVPTLRACLQPSQDPQMRLKLFSILSTVLLRATDTINSQGQFPSYLETVTKDILAPNLQWHAGRTAAAIRTAAVSCLWALTSSEVLSAEQIRDVQETLMPQVLTTLEEDSKMTRLISCRIINTFLKTSGGMTDPEKLIRIYPELLKRLDDVSNDVRMAAASTLVTWLQCVKGANAKSYYQSSVQYLYRELLVHLDDPERAIQDAILEVLKEGSGLFPDLLVRETEAVIHKHRSATYCEQLLQHVQAVPATQ
B4: sp¦P62995¦TRA2B_HUMAN (protein, UniProt P62995 2-288, looked up)
Transformer-2 protein homolog …: SDSGEQNYGERESRSASRSGSAHGSGKSARHTPARSRSKEDSRRSRSKSRSRSESRSRSRRSSRRHYTRSRSRSRSHRRSRSRSYSRDYRRRHSHSHSPMSTRRRHVGNRANPDPNCCLGVFGLSLYTTERDLREVFSKYGPIADVSIVYDQQSRRSRGFAFVYFENVDDAKEAKERANGMELDGRRIRVDFSITKRPHTPTPGIYMGRPTYGSSRRRDYYDRGYDRGYDDRDYYSRSYRGGGGGGGGWRAAQDRDQIYRRRSPSPYYSRGGYRSRSRSRSYSPRRY
B5: sp¦Q8N335¦GPD1L_HUMAN (protein, UniProt Q8N335 1-351, looked up)
Glycerol-3-phosphate …: MAAAPLKVCIVGSGNWGSAVAKIIGNNVKKLQKFASTVKMWVFEETVNGRKLTDIINNDHENVKYLPGHKLPENVVAMSNLSEAVQDADLLVFVIPHQFIHRICDEITGRVPKKALGITLIKGIDEGPEGLKLISDIIREKMGIDISVLMGANIANEVAAEKFCETTIGSKVMENGLLFKELLQTPNFRITVVDDADTVELCGALKNIVAVGAGFCDGLRCGDNTKAAVIRLGLMEMIAFARIFCKGQVSTATFLESCGVADLITTCYGGRNRRVAEAFARTGKTIEELEKEMLNGQKLQGPQTSAEVYRILKQKGLLDKFPLFTAVYQICYESRPVQEMLSCLQSHPEHT
B6: sp¦P13995¦MTDC_HUMAN (protein, UniProt P13995 36-350, looked up)
Bifunctional …: EAVVISGRKLAQQIKQEVRQEVEEWVASGNKRPHLSVILVGENPASHSYVLNKTRAAAVVGINSETIMKPASISEEELLNLINKLNNDDNVDGLLVQLPLPEHIDERRICNAVSPDKDVDGFHVINVGRMCLDQYSMLPATPWGVWEIIKRTGIPTLGKNVVVAGRSKNVGMPIAMLLHTDGAHERPGGDATVTISHRYTPKEQLKKHTILADIVISAAGIPNLITADMIKEGAAVIDVGINRVHDPVTAKPKLVGDVDFEGVRQKAGYITPVPGGVGPMTVAMLMKNTIIAAKKVLRLEEREVLKSKELGVATN
B7: sp¦Q9UIG0¦BAZ1B_HUMAN (protein, UniProt Q9UIG0 1-1483, looked up)
Tyrosine-protein kinase BAZ1B: MAPLLGRKPFPLVKPLPGEEPLFTIPHTQEAFRTREEYEARLERYSERIWTCKSTGSSQLTHKEAWEEEQEVAELLKEEFPAWYEKLVLEMVHHNTASLEKLVDTAWLEIMTKYAVGEECDFEVGKEKMLKVKIVKIHPLEKVDEEATEKKSDGACDSPSSDKENSSQIAQDHQKKETVVKEDEGRRESINDRARRSPRKLPTSLKKGERKWAPPKFLPHKYDVKLQNEDKIISNVPADSLIRTERPPNKEIVRYFIRHNALRAGTGENAPWVVEDELVKKYSLPSKFSDFLLDPYKYMTLNPSTKRKNTGSPDRKPSKKSKTDNSSLSSPLNPKLWCHVHLKKSLSGSPLKVKNSKNSKSPEEHLEEMMKMMSPNKLHTNFHIPKKGPPAKKPGKHSDKPLKAKGRSKGILNGQKSTGNSKSPKKGLKTPKTKMKQMTLLDMAKGTQKMTRAPRNSGGTPRTSSKPHKHLPPAALHLIAYYKENKDREDKRSALSCVISKTARLLSSEDRARLPEELRSLVQKRYELLEHKKRWASMSEEQRKEYLKKKREELKKKLKEKAKERREKEMLERLEKQKRYEDQELTGKNLPAFRLVDTPEGLPNTLFGDVAMVVEFLSCYSGLLLPDAQYPITAVSLMEALSADKGGFLYLNRVLVILLQTLLQDEIAEDYGELGMKLSEIPLTLHSVSELVRLCLRRSDVQEESEGSDTDDNKDSAAFEDNEVQDEFLEKLETSEFFELTSEEKLQILTALCHRILMTYSVQDHMETRQQMSAELWKERLAVLKEENDKKRAEKQKRKEMEAKNKENGKVENGLGKTDRKKEIVKFEPQVDTEAEDMISAVKSRRLLAIQAKKEREIQEREMKVKLERQAEEERIRKHKAAAEKAFQEGIAKAKLVMRRTPIGTDRNHNRYWLFSDEVPGLFIEKGWVHDSIDYRFNHHCKDHTVSGDEDYCPRSKKANLGKNASMNTQHGTATEVAVETTTPKQGQNLWFLCDSQKELDELLNCLHPQGIRESQLKERLEKRYQDIIHSIHLARKPNLGLKSCDGNQELLNFLRSDLIEVATRLQKGGLGYVEETSEFEARVISLEKLKDFGECVIALQASVIKKFLQGFMAPKQKRRKLQSEDSAKTEEVDEEKKMVEEAKVASALEKWKTAIREAQTFSRMHVLLGMLDACIKWDMSAENARCKVCRKKGEDDKLILCDECNKAFHLFCLRPALYEVPDGEWQCPACQPATARRNSRGRNYTEESASEDSEDDESDEEEEEEEEEEEEEDYEVAGLRLRPRKTIRGKHSVIPPAARSGRRPGKKPHSTRRSQPKAPPVDDAEVDELVLQTKRSSRRQSLELQKCEEILHKIVKYRFSWPFREPVTRDEAEDYYDVITHPMDFQTVQNKCSCGSYRSVQEFLTDMKQVFTNAEVYNCRGSHVLSCMVKTEQCLVALLHKHLPGHPYVRRKRKKFPDRLAEDEGDSEPEAVGQSRGRRQKK

Tested on: human HL60 cells
Assay: SWATH-MS proteomics, differential protein representation, akirin2 KO vs WT HL60 cells
Format: cell-based
Details: akirin2 KO vs WT HL60 cells; sheet "Under-represented in KO"
Procedure, shortened: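 Proteins from WT and akirin2 KO HL60 cells (n=3 biological replicates) were FASP trypsin-digested and analyzed by SWATH-MS DIA with variable windows against an IDA-derived spectral library. Identifications at 1% global FDR; quantities normalized to total area sums of all detected proteins.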

Row | Molecule | Fold Change | Log (Fold Change)
1 | B1 | 0.6822 | -0.1661
2 | B2 | 0.6839 | -0.165
3 | B3 | 0.3018 | -0.5202
4 | B4 | 0.3066 | -0.5134
5 | B5 | 0.6832 | -0.1655
6 | B6 | 0.682 | -0.1662
7 | B7 | 0.6821 | -0.1661
